This note sets out measurements from article PMC4002761.

This test addresses Taxol-stabilized Cy5-microtubules. Put plainly: single-molecule TIRF microscopy.

As for “mouse GFP-fused FL MT1 (M356T) Kif21a (natural protein)”, the fold increase in the frequency of active landing events against FL WT Kif21a worked out at 10 fold.

“mouse GFP-fused FL MT3 (R943W) Kif21a (natural protein)” displayed a fold increase in the frequency of active landing events against FL WT Kif21a of 10 fold.
